{
  "source": "paper PMC2897144",
  "about": "(Hypertension, 2009)",
  "binders": {"B1": {"name": "G protein-coupled receptor kinase type 4 (enzyme, human (endogenous in RPTCs), UniProt P32298 1-578, looked up)", "chain": "MELENIVANSLLLKARQGGYGKKSGRSKKWKEILTLPPVSQCSELRHSIEKDYSSLCDKQPIGRRLFRQFCDTKPTLKRHIEFLDAVAEYEVADDEDRSDCGLSILDRFFNDKLAAPLPEIPPDVVTECRLGLKEENPSKKAFEECTRVAHNYLRGEPFEEYQESSYFSQFLQWKWLERQPVTKNTFRHYRVLGKGGFGEVCACQVRATGKMYACKKLQKKRIKKRKGEAMALNEKRILEKVQSRFVVSLAYAYETKDALCLVLTIMNGGDLKFHIYNLGNPGFDEQRAVFYAAELCCGLEDLQRERIVYRDLKPENILLDDRGHIRISDLGLATEIPEGQRVRGRVGTVGYMAPEVVNNEKYTFSPDWWGLGCLIYEMIQGHSPFKKYKEKVKWEEVDQRIKNDTEEYSEKFSEDAKSICRMLLTKNPSKRLGCRGEGAAGVKQHPVFKDINFRRLEANMLEPPFCPDPHAVYCKDVLDIEQFSVVKGIYLDTADEDFYARFATGCVSIPWQNEMIESGCFKDINKSESEEALPLDLDKNIHTPVSRPNRGFFYRLFRRGGCLTMVPSEKEVEPKQC"}, "B2": {"name": "caveolin-1 (natural protein, human (endogenous in RPTCs), UniProt Q03135 1-178, looked up)", "chain": "MSGGKYVDSEGHLYTVPIREQGNIYKPNNKAMADELSEKQVYDAHTKEIDLVNRDPKHLNDDVVKIDFEDVIAEPEGTHSFDGIWKASFTTFTVTKYWFYRLLSALFGIPMALIWGIYFAILSFLHIWAVVPCIKSFLIEIQCISRVYSIYVHTVCDPLFEAVGKIFSNVRINLQKEI"}},
  "key": {"caveolin-1": {"target": "B2", "assay": "co-IP"}, "[1]": {"target": "B1", "assay": "co-IP"}},
  "data": [
    {"binder": "B1", "values": [
      {"measurement": "decrease of co-immunoprecipitation in uRPTCs relative to nRPTCs", "setting": "caveolin-1", "result": 58, "unit": "%"}
    ]},
    {"binder": "B2", "values": [
      {"measurement": "decrease of co-immunoprecipitation in uRPTCs relative to nRPTCs", "setting": "[1]", "result": 55.6, "unit": "%"}
    ]}
  ]
}
